Here are results for one substance from patent publication US20060026702A1, “Phosphoinositide 3-kinase mediated inhibition of GPCRs” (DUKE UNIVERSITY, priority 2002, published 2006).

This test addresses endogenous βARK1 of HEK 293 cells (UniProt P25098). Briefly: cell-based or functional assay.

Where only a bound is given, the exact number is not on record here.

endogenous βARK1 of HEK 293 cells, sequence (P25098 whole entry): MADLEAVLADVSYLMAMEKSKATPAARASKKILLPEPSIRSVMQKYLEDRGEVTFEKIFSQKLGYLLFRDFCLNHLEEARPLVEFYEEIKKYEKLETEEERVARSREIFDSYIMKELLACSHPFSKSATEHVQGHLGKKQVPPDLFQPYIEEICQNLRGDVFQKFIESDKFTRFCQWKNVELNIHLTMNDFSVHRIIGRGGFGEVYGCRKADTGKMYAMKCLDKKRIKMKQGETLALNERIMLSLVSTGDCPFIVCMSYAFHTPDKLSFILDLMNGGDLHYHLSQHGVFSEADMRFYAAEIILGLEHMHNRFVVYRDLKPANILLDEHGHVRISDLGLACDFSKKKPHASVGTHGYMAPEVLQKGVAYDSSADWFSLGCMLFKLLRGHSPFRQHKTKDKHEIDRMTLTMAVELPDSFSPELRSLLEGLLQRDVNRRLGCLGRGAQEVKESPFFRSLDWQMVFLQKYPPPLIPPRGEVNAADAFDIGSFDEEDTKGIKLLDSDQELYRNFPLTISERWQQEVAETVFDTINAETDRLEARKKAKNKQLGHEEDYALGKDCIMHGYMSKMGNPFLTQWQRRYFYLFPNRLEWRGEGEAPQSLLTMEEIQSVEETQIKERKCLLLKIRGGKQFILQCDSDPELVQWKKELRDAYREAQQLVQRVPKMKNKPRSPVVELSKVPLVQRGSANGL

“endogenous PI3K of HEK 293 cells (enzyme)” displayed a rate of agonist-dependent β2AR sequestration (125I-Cyanopindolol binding) with HEAT protein overexpressed of more than 60%.
